The results in this text go back to paper PMC11670113 (Proceedings of the National Academy of Sciences of the …, 2024).

B1: full-length, myristoylated Arf1-Q71L (enzyme)
chain: not shown
modifications: myristoylated
B2: AP-3 δ subunit (residues 1-617), as in the AP-3 core (domain or fragment, human, UniProt O14617 1-617, looked up)
chain: MALKMVKGSIDRMFDKNLQDLVRGIRNHKEDEAKYISQCIDEIKQELKQDNIAVKANAVCKLTYLQMLGYDISWAAFNIIEVMSASKFTFKRIGYLAASQSFHEGTDVIMLTTNQIRKDLSSPSQYDTGVALTGLSCFVTPDLARDLANDIMTLMSHTKPYIRKKAVLIMYKVFLKYPESLRPAFPRLKEKLEDPDPGVQSAAVNVICELARRNPKNYLSLAPLFFKLMTSSTNNWVLIKIIKLFGALTPLEPRLGKKLIEPLTNLIHSTSAMSLLYECVNTVIAVLISLSSGMPNHSASIQLCVQKLRILIEDSDQNLKYLGLLAMSKILKTHPKSVQSHKDLILQCLDDKDESIRLRALDLLYGMVSKKNLMEIVKKLMTHVDKAEGTTYRDELLTKIIDICSQSNYQYITNFEWYISILVELTRLEGTRHGHLIAAQMLDVAIRVKAIRKFAVSQMSALLDSAHLLASSTQRNGICEVLYAAAWICGEFSEHLQEPHHTLEAMLRPRVTTLPGHIQAVYVQNVVKLYASILQQKEQAGEAEGAQAVTQLMVDRLPQFVQSADLEVQERASCILQLVKHIQKLQAKDVPVAEEVSALFAGELNPVAPKAQKKVPV

Data set [1] concerns the target B2. Nature of the data set: cryo-EM structure.
Data set [2] concerns the molecule itself. Briefly: cryo-EM structure.

As for B1, the binding result in data set [1] is given as “binds”.
B2: the binding result in data set [2] was “binds”.
